The chains are these.
B1: PpAAT1 (Prunus persica; K298F) (protein)
chain: MGSLCPLLFPVNRFEPELITPAKPTPIETKQLSDIDDQDGLRFHFPVIISYKNNPSMKGNDAVMVIREALSRALVYYYPLAGRLREGPNRKLMVECNGEGVLFIEANADVTLEQLGDRILPPCPVLEEFLSNPPGSDGILGCPLLLVQVTRLTCGGFIFGLRINHAMCDAVGLAKFLNAIGEMAQGADSLSVPPVWARELLNARDPPTVTRWHYEYDQLLDSQGSFIAAIDQSNMAQRSFYFGPQQIRALRKHLPPHLSTCSSFELITACVWRCRTLSLRLNPKDTVRISCAVNARGFSINDLCLPSGFYGNAFSIPTAVSTVELLCASPLGYGVELVRKSKAQMDKEYMQSLADFFVIRGRPPLPMGWNVFIVSDNRHTGFGEFDVGWGRPLFAGLARAFSMISFYVRDNNQEEEFGTLVPICLPSTSLERFEEELKKMTLEHVEEISK
notes: codon-optimised, C-terminal polyhistidine tag, pET-30a(+), expressed in E. coli, purified; HxxxD motif HAMCD at H165-D169
B2: PpAAT1 (Prunus persica; K342F) (protein)
chain: B1 chain with F298K, K342F
notes: as for B1
B3: PpAAT1 (Prunus persica; A174S) (protein)
chain: B1 chain with A174S, F298K
notes: as for B1
B4: PpAAT1 (Prunus persica; F314Y) (protein)
chain: B1 chain with F298K, F314Y
notes: as for B1
B5: PpAAT1 (Prunus persica; A170S) (protein)
chain: B1 chain with A170S, F298K
notes: as for B1
B6: PpAAT1 (Prunus persica; S262A) (protein)
chain: B1 chain with S262A, F298K
notes: as for B1
B7: PpAAT1 (Prunus persica; R339V) (protein)
chain: B1 chain with F298K, R339V
notes: as for B1
B8: PpAAT1 (Prunus persica; H379V) (protein)
chain: B1 chain with F298K, H379V
notes: as for B1
B9: PpAAT1 (Prunus persica; F382Y) (protein)
chain: B1 chain with F298K, F382Y
notes: as for B1
B10: PpAAT1 (Prunus persica) (protein)
chain: B1 chain with F298K
notes: as for B1
B11: PpAAT1 (Prunus persica; F264Y) (protein)
chain: B1 chain with F264Y, F298K
notes: as for B1

Positions count from the first letter of the chain named. Names and notes keep the numbering of the source.

For orientation: kcat means the number of substrate molecules converted per active site and unit of time at saturation. One may read the kcat/Km as the turnover number divided by the Michaelis constant.

T1 sequence (M5WU76 entry or part of it): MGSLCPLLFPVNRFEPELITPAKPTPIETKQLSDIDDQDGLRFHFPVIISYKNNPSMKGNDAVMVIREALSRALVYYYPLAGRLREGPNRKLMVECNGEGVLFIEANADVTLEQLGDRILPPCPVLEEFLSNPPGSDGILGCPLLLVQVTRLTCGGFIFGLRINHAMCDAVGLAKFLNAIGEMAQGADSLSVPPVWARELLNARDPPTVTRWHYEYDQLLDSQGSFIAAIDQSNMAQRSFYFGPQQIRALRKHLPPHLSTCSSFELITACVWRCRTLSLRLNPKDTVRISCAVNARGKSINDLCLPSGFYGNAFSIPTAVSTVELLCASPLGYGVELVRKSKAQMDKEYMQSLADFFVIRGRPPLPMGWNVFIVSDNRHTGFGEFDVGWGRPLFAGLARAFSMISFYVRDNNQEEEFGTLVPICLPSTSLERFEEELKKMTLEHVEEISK

Substrate in the first data set: CCCCCCC(O)CCC(=O)SCCNC(=O)CCNC(=O)[C@H](O)C(C)(C)COP(=O)(O)OP(=O)(O)OC[C@H]1O[C@@H](n2cnc3c(N)ncnc32)[C@H](O)[C@@H]1OP(=O)(O)O
Briefly: GC-MS of gamma-decalactone formation. The format is biochemical, Prunus persica. The note with it: internal esterification to gamma-decalactone; ±SE, n = 3. The source says: GC-MS of gamma-decalactone formation on PpAAT1
For the molecule B1, the Km is recorded as 10.1014 (±1.4928) mM, the kcat came out at 0.451 ± 0.0624 s⁻¹ and the kcat/Km came out at 44.1 ± 7.9 M⁻¹ s⁻¹.
The corresponding values for B2 are 5.0532 (±0.3364) mM, 1.32 ± 0.0927 s⁻¹ and 262 ± 74.2 M⁻¹ s⁻¹.
For B3, the Km is listed as 9.1599 (±1.0952) mM, the kcat turned out to be 0.399 ± 0.048 s⁻¹ and the kcat/Km was found to be 43.6 ± 6.9 M⁻¹ s⁻¹.
The corresponding values for B4 are 4.2018 (±0.5997) mM, 1.11 ± 0.119 s⁻¹ and 265 ± 31.1 M⁻¹ s⁻¹.
The corresponding values for B5 are 4.5852 (±0.6923) mM, 1.28 ± 0.1 s⁻¹ and 278 ± 19.4 M⁻¹ s⁻¹.
In the same order, the values of B6 are 2.9920 (±0.3836) mM, 2.36 ± 0.364 s⁻¹ and 790 ± 190 M⁻¹ s⁻¹.
B7: the Km is on record as 8.8556 (±1.4954) mM, the kcat is 0.322 ± 0.0547 s⁻¹ and the kcat/Km stood at 36.3 ± 5.1 M⁻¹ s⁻¹.
In the same order, the values of B8 are 8.2152 (±0.9510) mM, 0.362 ± 0.0249 s⁻¹ and 44.1 ± 3.6 M⁻¹ s⁻¹.
For the molecule B9, the Km is 9.0224 (±0.7366) mM, the kcat is 0.373 ± 0.0138 s⁻¹ and the kcat/Km worked out at 41.3 ± 2.7 M⁻¹ s⁻¹.
In the same order, the values of B10 are 2.6187 (±0.2511) mM, 2.72 ± 0.146 s⁻¹ and 1040 ± 91.6 M⁻¹ s⁻¹.
The corresponding values for B11 are 3.0241 (±0.5145) mM, 2.53 ± 0.287 s⁻¹ and 836 ± 122 M⁻¹ s⁻¹.

Another data set concerns the target T1, PpAAT1 (Prunus persica, UniProt M5WU76).
T1 construct: gene AAT1; codon-optimised, C-terminal polyhistidine tag, pET-30a(+), expressed in E. coli, purified; HxxxD motif HAMCD at H165-D169
As to the kind of experiment: esterification assay. The class given is biochemical. Conditions: co-substrate acetyl-CoA; product decyl acetate.
Turning to `CCCCCCCCCCO` [decanol], the Kcat/Km entry is “acetyl–CoA and four different alcohols (propanol, hexanol, benzyl alcohol, and decanol)”.

The data set is the same for the next values; noted with them: co-substrate acetyl-CoA; product hexyl acetate.
As for `CCCCCCO` [hexanol], the Kcat/Km entry is given as “a higher Kcat/Km ratio was observed in all substitutions when hexanol was used as the substrate”.

Still in this data set, the particulars now being: co-substrate acetyl-CoA; product phenylmethyl acetate.
As for `OCc1ccccc1` [benzyl alcohol], the Kcat/Km result was “acetyl–CoA and four different alcohols (propanol, hexanol, benzyl alcohol, and decanol)”.

Staying with this data set, now noted: co-substrate acetyl-CoA; product propyl acetate.
With `CCCO` [propanol], the Kcat/Km entry is “acetyl–CoA and four different alcohols (propanol, hexanol, benzyl alcohol, and decanol)”.
